Results from patent US20040192900A1.

Experiments:
Fc-CD22 [1] = target: Fc-CD22 (UniProt P20273); assay: SPR (BIAcore 2000); inhibition of 2nd mAb binding to Fc-CD22 by prior saturation with G5/44 (competitor G5/44)
Fc-CD22 [2] = target: Fc-CD22 (UniProt P20273); assay: SPR (BIAcore 2000); Fc-CD22 pre-saturated with G5/44 (competitor G5/44); combined response of G5/44 and 2nd mAb
Fc-CD22 [3] = target: Fc-CD22 (UniProt P20273); assay: SPR (BIAcore 2000); 2nd mAb on Fc-CD22 pre-saturated with G5/44 (competitor G5/44)
Fc-CD22 [4] = target: Fc-CD22 (UniProt P20273); assay: SPR (BIAcore 2000); 2nd mAb on Fc-CD22 without G5/44

Substance	Inhibition by G544 (%) (Fc-CD22 [1])	Response 2 after 2nd Anti-CD22 mAb (RU) (Fc-CD22 [2])	Response 3 (Response 2-1) (RU) (Fc-CD22 [3])	Response 3 adjusted for OFF rate of G544 (RU) (Fc-CD22 [3])	Binding of 2nd mAb without G544 adjusted for background (RU) (Fc-CD22 [4])
anti-CD19 antibody BU12 (Celltech, Slough, UK)	0	603	-83.5	0	
anti-CD22 mAb 4KB128 (Dako Corp) (antibody)	0	1340	652	736	739
anti-CD22 mAb HD239 (Santa Cruz Biotech) (antibody)	91	629	-81.8	1.7	19.3
anti-CD22 mAb SHCL-1, Leu 14 (Becton Dickinson) (antibody)	69	580	-74.5	9	29.3
anti-CD22 mAb To 15 (Dako Corp) (antibody)	7	1160	487	570	615
